Among the data in US20150344570A1 (published 2015) are He/Con_2aR, He/Con_2b and He_2aR/2b values, retold here.

Experiment [1] has as its target T1, FcγRIIa R (human, UniProt P12318 34-217).
T1 construct: extracellular domain; also called FcgRIIa R type; 2aR; not shown: His tag at the C terminus
T1 sequence (looked up): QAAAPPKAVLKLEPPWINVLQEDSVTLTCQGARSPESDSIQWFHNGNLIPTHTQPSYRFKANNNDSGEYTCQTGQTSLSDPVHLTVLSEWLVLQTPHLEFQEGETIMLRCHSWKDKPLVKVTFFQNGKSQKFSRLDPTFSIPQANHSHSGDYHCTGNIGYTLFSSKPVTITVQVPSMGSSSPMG
The experiment can be described thus: SPR, relative to GpH7-A5/GpH7-B3/GpL16-k0.

For a further experiment, the target named is T2, FcγRIIb (human, UniProt P31994 43-217).
T2 construct: extracellular domain; also called FcgRIIb; 2b; not shown: His tag at the C terminus
T2 sequence (looked up): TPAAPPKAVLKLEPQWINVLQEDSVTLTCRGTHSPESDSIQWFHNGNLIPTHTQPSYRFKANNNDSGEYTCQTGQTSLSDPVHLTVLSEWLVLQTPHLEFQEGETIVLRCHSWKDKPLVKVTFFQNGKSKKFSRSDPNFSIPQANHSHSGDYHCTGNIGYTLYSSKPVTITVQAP
The experiment can be described thus: SPR, relative to GpH7-A5/GpH7-B3/GpL16-k0. (SPR reads the build-up and loss of mass on a sensor chip optically.)

For experiment [2], the target named is T1, FcγRIIa R. Put plainly: SPR; He/Con_2aR divided by He/Con_2b (FcγRIIa R over FcγRIIb).

B1: GpH7-A5/GpH7-B3 variant N325_08L/GpL16-k0 (antibody, human IgG1, kappa)
heavy 1: not shown
heavy 2: not shown
light: DIVMTQSPLSLPVTPGEPASISCQASESLVHSNRNTYLHWYLQKPGQSPQLLIYKVSNRFSGVPDRFSGSGSGTDFTLKISRVEAEDVGVYYCSQNTHVPPTFGQGTKVEIERTVAAPSVFIFPPSDEQLKSGTASVVCLLNNFYPREAKVQWKVDNALQSGNSQESVTEQDSKDSTYSLSSTLTLSKADYEKHKVYACEVTHQGLSSPVTKSFNRGEC
notes: Heterodimerized anti-glypican-3 IgG1; mutation in the GpH7-B3 chain only; also called He Ab
As for B1, the He/Con_2aR with FcγRIIa R [1] came out at 144 control = 100. The He/Con_2b with FcγRIIb is 197 control = 100. Also, the He_2aR/2b with FcγRIIa R [2] stood at 0.73 ratio.

B2: GpH7-A5/GpH7-B3 variant S267_04F/GpL16-k0 (antibody, human IgG1, kappa)
heavy 1: not shown
heavy 2: not shown
light: DIVMTQSPLSLPVTPGEPASISCQASESLVHSNRNTYLHWYLQKPGQSPQLLIYKVSNRFSGVPDRFSGSGSGTDFTLKISRVEAEDVGVYYCSQNTHVPPTFGQGTKVEIERTVAAPSVFIFPPSDEQLKSGTASVVCLLNNFYPREAKVQWKVDNALQSGNSQESVTEQDSKDSTYSLSSTLTLSKADYEKHKVYACEVTHQGLSSPVTKSFNRGEC
notes: as for B1
As to B2, the He/Con_2aR with FcγRIIa R [1] was 37.8 control = 100. In the experiment with FcγRIIb, the He/Con_2b worked out at 48 control = 100. For the same molecule, the He_2aR/2b with FcγRIIa R [2] amounted to 0.79 ratio.

B3: GpH7-A5/GpH7-B3 variant S267_03V/GpL16-k0 (antibody, human IgG1, kappa)
heavy 1: not shown
heavy 2: not shown
light: DIVMTQSPLSLPVTPGEPASISCQASESLVHSNRNTYLHWYLQKPGQSPQLLIYKVSNRFSGVPDRFSGSGSGTDFTLKISRVEAEDVGVYYCSQNTHVPPTFGQGTKVEIERTVAAPSVFIFPPSDEQLKSGTASVVCLLNNFYPREAKVQWKVDNALQSGNSQESVTEQDSKDSTYSLSSTLTLSKADYEKHKVYACEVTHQGLSSPVTKSFNRGEC
notes: as for B1
As to B3, the He/Con_2aR with FcγRIIa R [1] stood at 116 control = 100. Besides, the He/Con_2b in the experiment with FcγRIIb stood at 192 control = 100. The molecule further gave a He_2aR/2b with FcγRIIa R [2] of 0.61 ratio.

B4: GpH7-A5/GpH7-B3 variant P238_10E/GpL16-k0 (antibody, human IgG1, kappa)
heavy 1: not shown
heavy 2: not shown
light: DIVMTQSPLSLPVTPGEPASISCQASESLVHSNRNTYLHWYLQKPGQSPQLLIYKVSNRFSGVPDRFSGSGSGTDFTLKISRVEAEDVGVYYCSQNTHVPPTFGQGTKVEIERTVAAPSVFIFPPSDEQLKSGTASVVCLLNNFYPREAKVQWKVDNALQSGNSQESVTEQDSKDSTYSLSSTLTLSKADYEKHKVYACEVTHQGLSSPVTKSFNRGEC
notes: as for B1
Molecule B4 showed a He/Con_2aR in the experiment with FcγRIIa R [1] of 151 control = 100. Besides, in the experiment with FcγRIIb, the He/Con_2b is 232 control = 100. The same molecule yielded a He_2aR/2b with FcγRIIa R [2] of 0.65 ratio.

B5: GpH7-A5/GpH7-B3 variant P238_08L/GpL16-k0 (antibody, human IgG1, kappa)
heavy 1: not shown
heavy 2: not shown
light: DIVMTQSPLSLPVTPGEPASISCQASESLVHSNRNTYLHWYLQKPGQSPQLLIYKVSNRFSGVPDRFSGSGSGTDFTLKISRVEAEDVGVYYCSQNTHVPPTFGQGTKVEIERTVAAPSVFIFPPSDEQLKSGTASVVCLLNNFYPREAKVQWKVDNALQSGNSQESVTEQDSKDSTYSLSSTLTLSKADYEKHKVYACEVTHQGLSSPVTKSFNRGEC
notes: as for B1
The molecule B5 gave a He/Con_2aR with FcγRIIa R [1] of 140 control = 100. In the experiment with FcγRIIb, the He/Con_2b was 204 control = 100. Moreover, the He_2aR/2b with FcγRIIa R [2] is 0.68 ratio.

B6: GpH7-A5/GpH7-B3 variant S239_09D/GpL16-k0 (antibody, human IgG1, kappa)
heavy 1: not shown
heavy 2: not shown
light: DIVMTQSPLSLPVTPGEPASISCQASESLVHSNRNTYLHWYLQKPGQSPQLLIYKVSNRFSGVPDRFSGSGSGTDFTLKISRVEAEDVGVYYCSQNTHVPPTFGQGTKVEIERTVAAPSVFIFPPSDEQLKSGTASVVCLLNNFYPREAKVQWKVDNALQSGNSQESVTEQDSKDSTYSLSSTLTLSKADYEKHKVYACEVTHQGLSSPVTKSFNRGEC
notes: as for B1
In the experiment with FcγRIIa R [1], B6 registered a He/Con_2aR of 137 control = 100. The molecule further displayed a He/Con_2b with FcγRIIb of 206 control = 100. In addition, the He_2aR/2b in the experiment with FcγRIIa R [2] stood at 0.66 ratio.

B7: GpH7-A5/GpH7-B3 variant S239_10E/GpL16-k0 (antibody, human IgG1, kappa)
heavy 1: not shown
heavy 2: not shown
light: DIVMTQSPLSLPVTPGEPASISCQASESLVHSNRNTYLHWYLQKPGQSPQLLIYKVSNRFSGVPDRFSGSGSGTDFTLKISRVEAEDVGVYYCSQNTHVPPTFGQGTKVEIERTVAAPSVFIFPPSDEQLKSGTASVVCLLNNFYPREAKVQWKVDNALQSGNSQESVTEQDSKDSTYSLSSTLTLSKADYEKHKVYACEVTHQGLSSPVTKSFNRGEC
notes: as for B1
Regarding B7, in the experiment with FcγRIIa R [1], the He/Con_2aR was 135 control = 100. The He/Con_2b with FcγRIIb came out at 181 control = 100. In the experiment with FcγRIIa R [2], this molecule registered a He_2aR/2b of 0.75 ratio.

B8: GpH7-A5/GpH7-B3 variant N325_20W/GpL16-k0 (antibody, human IgG1, kappa)
heavy 1: not shown
heavy 2: not shown
light: DIVMTQSPLSLPVTPGEPASISCQASESLVHSNRNTYLHWYLQKPGQSPQLLIYKVSNRFSGVPDRFSGSGSGTDFTLKISRVEAEDVGVYYCSQNTHVPPTFGQGTKVEIERTVAAPSVFIFPPSDEQLKSGTASVVCLLNNFYPREAKVQWKVDNALQSGNSQESVTEQDSKDSTYSLSSTLTLSKADYEKHKVYACEVTHQGLSSPVTKSFNRGEC
notes: as for B1
Turning to B8, the He/Con_2aR with FcγRIIa R [1] worked out at 134 control = 100. In the experiment with FcγRIIb, this molecule returned a He/Con_2b of 169 control = 100. Besides, the He_2aR/2b in the experiment with FcγRIIa R [2] stood at 0.79 ratio.

B9: GpH7-A5/GpH7-B3 variant P238_09D/GpL16-k0 (antibody, human IgG1, kappa)
heavy 1: not shown
heavy 2: not shown
light: DIVMTQSPLSLPVTPGEPASISCQASESLVHSNRNTYLHWYLQKPGQSPQLLIYKVSNRFSGVPDRFSGSGSGTDFTLKISRVEAEDVGVYYCSQNTHVPPTFGQGTKVEIERTVAAPSVFIFPPSDEQLKSGTASVVCLLNNFYPREAKVQWKVDNALQSGNSQESVTEQDSKDSTYSLSSTLTLSKADYEKHKVYACEVTHQGLSSPVTKSFNRGEC
notes: as for B1
In turn, B9 gave a He/Con_2aR with FcγRIIa R [1] of 148 control = 100. In the experiment with FcγRIIb, the He/Con_2b is 221 control = 100. In the experiment with FcγRIIa R [2], this molecule registered a He_2aR/2b of 0.67 ratio.

B10: GpH7-A5/GpH7-B3 variant P238_15Y/GpL16-k0 (antibody, human IgG1, kappa)
heavy 1: not shown
heavy 2: not shown
light: DIVMTQSPLSLPVTPGEPASISCQASESLVHSNRNTYLHWYLQKPGQSPQLLIYKVSNRFSGVPDRFSGSGSGTDFTLKISRVEAEDVGVYYCSQNTHVPPTFGQGTKVEIERTVAAPSVFIFPPSDEQLKSGTASVVCLLNNFYPREAKVQWKVDNALQSGNSQESVTEQDSKDSTYSLSSTLTLSKADYEKHKVYACEVTHQGLSSPVTKSFNRGEC
notes: as for B1
Regarding B10, in the experiment with FcγRIIa R [1], the He/Con_2aR was determined as 156 control = 100. Also, the He/Con_2b with FcγRIIb came out at 218 control = 100. Also, in the experiment with FcγRIIa R [2], the He_2aR/2b came out at 0.72 ratio.

B11: GpH7-A5/GpH7-B3 variant P271_01G/GpL16-k0 (antibody, human IgG1, kappa)
heavy 1: not shown
heavy 2: not shown
light: DIVMTQSPLSLPVTPGEPASISCQASESLVHSNRNTYLHWYLQKPGQSPQLLIYKVSNRFSGVPDRFSGSGSGTDFTLKISRVEAEDVGVYYCSQNTHVPPTFGQGTKVEIERTVAAPSVFIFPPSDEQLKSGTASVVCLLNNFYPREAKVQWKVDNALQSGNSQESVTEQDSKDSTYSLSSTLTLSKADYEKHKVYACEVTHQGLSSPVTKSFNRGEC
notes: as for B1
In turn, B11 registered a He/Con_2aR in the experiment with FcγRIIa R [1] of 144 control = 100. The molecule also displayed a He/Con_2b with FcγRIIb of 193 control = 100. For the same molecule, the He_2aR/2b in the experiment with FcγRIIa R [2] came to 0.75 ratio.

B12: GpH7-A5/GpH7-B3 variant S267_02A/GpL16-k0 (antibody, human IgG1, kappa)
heavy 1: not shown
heavy 2: not shown
light: DIVMTQSPLSLPVTPGEPASISCQASESLVHSNRNTYLHWYLQKPGQSPQLLIYKVSNRFSGVPDRFSGSGSGTDFTLKISRVEAEDVGVYYCSQNTHVPPTFGQGTKVEIERTVAAPSVFIFPPSDEQLKSGTASVVCLLNNFYPREAKVQWKVDNALQSGNSQESVTEQDSKDSTYSLSSTLTLSKADYEKHKVYACEVTHQGLSSPVTKSFNRGEC
notes: as for B1
For the molecule B12, the He/Con_2aR with FcγRIIa R [1] was 155 control = 100. The molecule further registered a He/Con_2b in the experiment with FcγRIIb of 243 control = 100. The same molecule registered a He_2aR/2b with FcγRIIa R [2] of 0.64 ratio.

B13: GpH7-A5/GpH7-B3 variant P238_04F/GpL16-k0 (antibody, human IgG1, kappa)
heavy 1: not shown
heavy 2: not shown
light: DIVMTQSPLSLPVTPGEPASISCQASESLVHSNRNTYLHWYLQKPGQSPQLLIYKVSNRFSGVPDRFSGSGSGTDFTLKISRVEAEDVGVYYCSQNTHVPPTFGQGTKVEIERTVAAPSVFIFPPSDEQLKSGTASVVCLLNNFYPREAKVQWKVDNALQSGNSQESVTEQDSKDSTYSLSSTLTLSKADYEKHKVYACEVTHQGLSSPVTKSFNRGEC
notes: as for B1
In the case of B13, the He/Con_2aR in the experiment with FcγRIIa R [1] worked out at 174 control = 100. The He/Con_2b with FcγRIIb came to 312 control = 100. In the experiment with FcγRIIa R [2], this molecule gave a He_2aR/2b of 0.56 ratio.
